Assay results published in US20200157146A1.

Target: HLA-A2 (human)
Test: T2 cells without peptide stained with MA2.1 mAb, flow cytometry (baseline of the stabilization assay)

Question: For MA2.1 mAb (antibody), which mean channel fluorescence is on record?
Answer: Its mean channel fluorescence is 90.
